In the data set the test system is Escherichia coli TOP10. As to the kind of experiment: shrunken log2 fold change of peptide-encoding DNA abundance (4.5 h post-induction vs induction); higher = less antimicrobial activity (less host growth inhibition). Particulars: time post-induction: 4.5 h; library: site-saturation at positions 5, 18, 19, 20.
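Further: peptides expressed intracellularly from a pBAD plasmid library in pooled LB shake-flask culture, induced with 0.3% L-arabinose, DNA abundance read by NGS, three biological replicates, DESeq2 with apeglm shrinkage.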

RRIRIRPPRLPRPRPRPSCIPRP: the “shrunken log2 fold change” value is -0.0523.
The same measure for RRIRDRPPRLPRPRPRPMRIPRP: -0.0494; for RRIRPRPPRLPRPRPRPMSEPRP: -0.327; for RRIRYRPPRLPRPRPRPSHYPRP: -0.966.
Consider RRIRDRPPRLPRPRPRPFHPPRP, for which the “shrunken log2 fold change” value was -0.106.
For RRIRMRPPRLPRPRPRPVMFPRP, the “shrunken log2 fold change” value came to 0.199.
The same measure for RRIRYRPPRLPRPRPRPILSPRP: -0.107.
RRIRDRPPRLPRPRPRPYQMPRP: the “shrunken log2 fold change” value was -0.796.
On to RRIRFRPPRLPRPRPRPLLIPRP, for which the “shrunken log2 fold change” value was -0.385.
The same measure for RRIRHRPPRLPRPRPRPFNNPRP: -0.159; for RRIRLRPPRLPRPRPRPHHQPRP: -0.162.
The same measure for RRIRPRPPRLPRPRPRPGVYPRP: 0.0962.
Next, RRIRNRPPRLPRPRPRPMEFPRP: -0.136; RRIRMRPPRLPRPRPRPEFSPRP: 1.51.
Turning to RRIRHRPPRLPRPRPRPEGFPRP, the “shrunken log2 fold change” value was -0.078.
As to RRIRERPPRLPRPRPRPHEGPRP, the “shrunken log2 fold change” value was 0.127.
The same measure for RRIRIRPPRLPRPRPRPPDMPRP: -0.16.
Next, RRIRNRPPRLPRPRPRPHMSPRP: 0.0135.
Next, RRIRVRPPRLPRPRPRPIDKPRP: -0.471; RRIRERPPRLPRPRPRPGGDPRP: 0.0586.
Turning to RRIRPRPPRLPRPRPRPLSKPRP, the “shrunken log2 fold change” value came out at 0.14.
Consider RRIRWRPPRLPRPRPRPKFMPRP, for which the “shrunken log2 fold change” value is -0.0525.
The same measure for RRIRMRPPRLPRPRPRPTWGPRP: 0.564.
Next, RRIRRRPPRLPRPRPRPYGWPRP: 0.0825.
Next, RRIRARPPRLPRPRPRPDPAPRP: 1.3.
Take RRIRPRPPRLPRPRPRPRVGPRP: the “shrunken log2 fold change” value was determined as 0.543.
With RRIRVRPPRLPRPRPRPIRYPRP, the “shrunken log2 fold change” value was found to be 0.146.
Next, RRIRMRPPRLPRPRPRPEDDPRP: -0.01; RRIRERPPRLPRPRPRPFNAPRP: -0.328.
Next, RRIRPRPPRLPRPRPRPHGYPRP: -0.0483.
The same measure for RRIRFRPPRLPRPRPRPACMPRP: -0.263; for RRIRQRPPRLPRPRPRPNQNPRP: -0.24; for RRIRRRPPRLPRPRPRPKYAPRP: -0.0331.
For the sequence RRIRTRPPRLPRPRPRPFTEPRP, the “shrunken log2 fold change” value is -0.21.
Regarding RRIRRRPPRLPRPRPRPYCDPRP, the “shrunken log2 fold change” value is -0.0241.
Turning to RRIRWRPPRLPRPRPRPVWLPRP, the “shrunken log2 fold change” value came out at 0.284.
Next, RRIRVRPPRLPRPRPRPEFPPRP: -0.081; RRIRPRPPRLPRPRPRPWGNPRP: -0.225; RRIRGRPPRLPRPRPRPSKDPRP: 0.0908.
Next, RRIRPRPPRLPRPRPRPIDLPRP: -0.0858; RRIRERPPRLPRPRPRPRWWPRP: 0.0167.
Next, RRIRYRPPRLPRPRPRPAEMPRP: -1.02; RRIRLRPPRLPRPRPRPYHIPRP: -0.713.
For the sequence RRIRFRPPRLPRPRPRPNRMPRP, the “shrunken log2 fold change” value turned out to be 0.0762.
As to RRIRWRPPRLPRPRPRPNGPPRP, the “shrunken log2 fold change” value is -0.0107.
In the case of RRIRRRPPRLPRPRPRPVKIPRP, the “shrunken log2 fold change” value stood at 0.266.
Next, RRIRMRPPRLPRPRPRPKRFPRP: 0.483; RRIRFRPPRLPRPRPRPAPPPRP: 0.736.
Next, RRIRHRPPRLPRPRPRPYRDPRP: -0.0135; RRIRTRPPRLPRPRPRPAEVPRP: -0.108.
Next, RRIRNRPPRLPRPRPRPWRYPRP: -0.0121.
Regarding RRIRDRPPRLPRPRPRPGGCPRP, the “shrunken log2 fold change” value came to 0.687.
Next, RRIRMRPPRLPRPRPRPVWPPRP: 1.07.
Next, RRIRSRPPRLPRPRPRPYGWPRP: 0.328.
The same measure for RRIRQRPPRLPRPRPRPSHDPRP: -0.104; for RRIRVRPPRLPRPRPRPDPPPRP: 1.27.
As for RRIRNRPPRLPRPRPRPTSMPRP, the “shrunken log2 fold change” value was 0.0812.
Next, RRIRKRPPRLPRPRPRPQWRPRP: 0.309; RRIRDRPPRLPRPRPRPMACPRP: -0.00146; RRIRLRPPRLPRPRPRPNGCPRP: 0.00888.
RRIRLRPPRLPRPRPRPFSSPRP: the “shrunken log2 fold change” value was -0.000451.
Next, RRIRWRPPRLPRPRPRPHVNPRP: -0.315.
For RRIRFRPPRLPRPRPRPNKAPRP, the “shrunken log2 fold change” value is -0.268.
Next, RRIRKRPPRLPRPRPRPWMCPRP: -0.316; RRIRFRPPRLPRPRPRPWKCPRP: 0.0039; RRIRNRPPRLPRPRPRPHFSPRP: 0.0053.
With RRIRPRPPRLPRPRPRPRYNPRP, the “shrunken log2 fold change” value is -0.522.
Next, RRIRQRPPRLPRPRPRPINYPRP: -0.0444; RRIRFRPPRLPRPRPRPDKLPRP: -0.505; RRIRQRPPRLPRPRPRPGMIPRP: -0.446.
The same measure for RRIRVRPPRLPRPRPRPSGWPRP: 0.16; for RRIRYRPPRLPRPRPRPELKPRP: -0.162.
Next, RRIRIRPPRLPRPRPRPGGTPRP: -0.439.
For the sequence RRIRVRPPRLPRPRPRPGVVPRP, the “shrunken log2 fold change” value turned out to be 0.43.
Next, RRIRARPPRLPRPRPRPIFDPRP: 0.0844; RRIRVRPPRLPRPRPRPPAQPRP: 0.223.
Next, RRIRWRPPRLPRPRPRPKNTPRP: -0.127; RRIRPRPPRLPRPRPRPISEPRP: -0.303; RRIRMRPPRLPRPRPRPRMVPRP: 0.125.
The same measure for RRIRARPPRLPRPRPRPTLTPRP: 1.08.
For RRIRPRPPRLPRPRPRPKIKPRP, the “shrunken log2 fold change” value was -0.0894.
Turning to RRIRARPPRLPRPRPRPTKSPRP, the “shrunken log2 fold change” value was 0.032.
Next, RRIRRRPPRLPRPRPRPTLDPRP: 0.809.
With RRIRWRPPRLPRPRPRPEQSPRP, the “shrunken log2 fold change” value came to 0.678.
Next, RRIRWRPPRLPRPRPRPYIFPRP: -0.242; RRIRTRPPRLPRPRPRPSSKPRP: -0.201.
Next, RRIRWRPPRLPRPRPRPRAQPRP: 0.56; RRIRERPPRLPRPRPRPPYEPRP: -0.296.
Next, RRIRARPPRLPRPRPRPSHRPRP: 0.0188; RRIRVRPPRLPRPRPRPLHSPRP: -0.0269; RRIRWRPPRLPRPRPRPAADPRP: 1.21.
As for RRIRYRPPRLPRPRPRPHHMPRP, the “shrunken log2 fold change” value is -0.311.
For the sequence RRIRGRPPRLPRPRPRPDMKPRP, the “shrunken log2 fold change” value was found to be 0.00543.
Take RRIRLRPPRLPRPRPRPQVLPRP: the “shrunken log2 fold change” value is -0.0429.
On to RRIRWRPPRLPRPRPRPLVHPRP, for which the “shrunken log2 fold change” value is -0.11.
The same measure for RRIRPRPPRLPRPRPRPNLHPRP: -0.203.
Next, RRIRGRPPRLPRPRPRPSPDPRP: 0.69; RRIRPRPPRLPRPRPRPFRMPRP: -0.134; RRIRGRPPRLPRPRPRPVVKPRP: 0.246.
Next, RRIRERPPRLPRPRPRPMQNPRP: 0.168; RRIRQRPPRLPRPRPRPCEGPRP: -0.000921; RRIRTRPPRLPRPRPRPTLRPRP: -0.023.
In the case of RRIRFRPPRLPRPRPRPTFQPRP, the “shrunken log2 fold change” value is -0.156.
Next, RRIRCRPPRLPRPRPRPGATPRP: 0.512; RRIRIRPPRLPRPRPRPKCDPRP: -0.352; RRIRKRPPRLPRPRPRPTEKPRP: 0.247.
The same measure for RRIRCRPPRLPRPRPRPNTKPRP: -0.358; for RRIRKRPPRLPRPRPRPFAQPRP: 0.177; for RRIRKRPPRLPRPRPRPWRQPRP: 0.182.
RRIRCRPPRLPRPRPRPPPYPRP: the “shrunken log2 fold change” value is 0.511.
Next, RRIRMRPPRLPRPRPRPHPNPRP: 0.299; RRIRMRPPRLPRPRPRPRDRPRP: 1.11.
Next, RRIRARPPRLPRPRPRPFSWPRP: -0.0923.
The same measure for RRIRMRPPRLPRPRPRPKNWPRP: 0.671; for RRIRNRPPRLPRPRPRPEIYPRP: -0.00989; for RRIRCRPPRLPRPRPRPYHPPRP: -0.539.
RRIRNRPPRLPRPRPRPLDRPRP: the “shrunken log2 fold change” value was 0.0215.
Next, RRIRGRPPRLPRPRPRPAQIPRP: 0.592; RRIRCRPPRLPRPRPRPKWDPRP: 0.13.
In the case of RRIRPRPPRLPRPRPRPFGHPRP, the “shrunken log2 fold change” value is -0.0335.
The same measure for RRIRLRPPRLPRPRPRPFIYPRP: -0.504; for RRIRQRPPRLPRPRPRPFYVPRP: -0.484; for RRIRPRPPRLPRPRPRPQQHPRP: -0.0726.
The same measure for RRIRSRPPRLPRPRPRPLAFPRP: -0.0837.
The same measure for RRIRDRPPRLPRPRPRPDPHPRP: 0.0248.

For the origin of these results see the supplement of paper PMC9112550, “Optimization of the antimicrobial peptide Bac7 by deep mutational scanning” (BMC Biology, 2022).
